Measurements as given in US20110189093A1, “PROSTATE SPECIFIC MEMBRANE ANTIGEN ANTIBODIES AND ANTIGEN BINDING FRAGMENTS” (PROSCAN RX PHARMA, priority 2008, published 2011).

What was measured:
[1] = system: 22 different tumor types; experiment: Immunohistochemistry on tissue microarrays of tumor types
Method: (§1) Tissue and tumor specificity of mAbs: to compare the tissue and tumor specificity of monoclonal antibodies of the present invention, tissue microarrays of 30 different normal tissues (Biochain) and 22 different tumor types (Dako) including prostate cancer was used in order to characterize their recognition specificity. The immunohistochemistry was performed on antigen retrieved, formalin fixed, paraffin embedded material. Anti-PSMA mAbs J591 (ATCC HB-12126) and 7E11 (ATCC HB-10494) were used as references. Formalin fixed paraffin embedded […] sections were subjected to antigen retrieval in basic antigen retrieval solution (BD Pharmingen pH 9.5) in a microwavable pressure cooker for 10 min, cooled and equilibrated to 0.01M phosphate buffered saline (PBS) pH 7.4. Staining was carried out at room temperature in a humidified chamber. Endogenous peroxidases were inactivated with a 1% solution of H2O2 for 20 min, blocked with 5% normal goat serum (NGS) for 30 min and incubated with primary monoclonal antibodies (mAbs) diluted in PBS; 2% NGS overnight. Antibody binding to tissue sections was detected by the sequential addition of the following reagents followed by washing in PBS: goat anti-mouse IgG (H+L) (ICN) secondary antibody diluted 1:100 in PBS; 2% NGS for 1 hr, a complex of a bi-specific mAb mouse anti-peroxidase and horse radish peroxidase for 1 hr, and 3,3-diaminobenzidene tetrahydrochloride (DAB) at 0.6 mg/ml in PBS; 2% NGS; 0.01% H2O2 as chromogen. The primary antibodies were purified mAbs used at concentrations optimized in dilution experiments. […] Mouse IgG mAb was used at a concentration of 0.2 μg/ml and served as a negative control for the primary antibodies. Tissue samples included organ confined and metastatic prostate cancer, HGPIN and normal prostate tissues drawn from radical prostatectomies, transurethral resections and autopsy material.

[2] = system: 30 different normal tissues; experiment: Immunohistochemistry on tissue microarrays of normal tissues
Method: as §1

B1: PSf42.4: anti-PSMA monoclonal antibody; light chain variable SEQ ID NO:51, heavy chain variable SEQ ID NO:52 (antibody, V domains shown)
VH: EVKLQQSGAELVKPGASVKLSCTASGFSIRDTYMHWVRQRPEQGLEWITGIDPENGNSKYAPRFQDKATIIADTSSNTVHLQLDTLTSEDTAVYYCTRELAYWGQGTTVTVS
VL: DILMTQSPLTLSVIIGQPASFSCKSSHSLLHRDGRTYLNWLLQRPGQSPQRLIYLVSKLDSGVPDRFTGSGSGTDFTLKISRVEAEDLGVYYCWQGTHFPRTFGGGTKLEIKRA
B1 was tested, and the “No. of positive cases/total no. of cases studied” value ([1]; Astrocytoma) was 0/2, the “No. of positive cases/total no. of cases studied” value ([1]; Breast carcinoma) was 0/2 and the “No. of positive cases/total no. of cases studied” value ([1]; Carcinoid) was 0/3. The “No. of positive cases/total no. of cases studied” value ([1]; Colonic adenocarcinoma) was 0/2, the “No. of positive cases/total no. of cases studied” value ([1]; Epithelioid sarcoma) was 0/1 and the “No. of positive cases/total no. of cases studied” value ([1]; Ewing's sarcoma) was 0/1. The “No. of positive cases/total no. of cases studied” value ([1]; Gastric carcinoma) was 0/2, the “No. of positive cases/total no. of cases studied” value ([1]; Hepatocellular carcinoma) was 0/2 and the “No. of positive cases/total no. of cases studied” value ([1]; Hodgkin's lymphoma) was 5/13. For the same molecule, the “No. of positive cases/total no. of cases studied” value ([1]; Leiomyoma) was 0/2, the “No. of positive cases/total no. of cases studied” value ([1]; Lung adeno carcinoma) was 0/2 and the “No. of positive cases/total no. of cases studied” value ([1]; Lymphoma) was 0/3. For the same molecule, the “No. of positive cases/total no. of cases studied” value ([1]; Malignant fibrous histiocytoma) was 0/1, the “No. of positive cases/total no. of cases studied” value ([1]; Melanoma) was 2/4 and the “No. of positive cases/total no. of cases studied” value ([1]; Mesothelioma) was 0/2. For the same molecule, the “No. of positive cases/total no. of cases studied” value ([1]; Ovarian carcinoma) was 0/2, the “No. of positive cases/total no. of cases studied” value ([1]; Pancreatic carcinoma) was 0/2 and the “No. of positive cases/total no. of cases studied” value ([1]; Prostatic carcinoma) was 1/1. For the same molecule, the “No. of positive cases/total no. of cases studied” value ([1]; Renal cell carcinoma) was 0/2, the “No. of positive cases/total no. of cases studied” value ([1]; Rhabdosarcoma) was 2/2 and the “No. of positive cases/total no. of cases studied” value ([1]; Thyroid carcinoma) was 0/2. For the same molecule, the “No. of positive cases/total no. of cases studied” value ([1]; Undifferentiated carcinoma) was 0/4, the “No. of positive cases/total no. of cases studied” value ([2]; Adipose) was 0/2 and the “No. of positive cases/total no. of cases studied” value ([2]; Bladder) was 0/2. The “No. of positive cases/total no. of cases studied” value ([2]; Brain) was 0/2, the “No. of positive cases/total no. of cases studied” value ([2]; Breast) was 0/2 and the “No. of positive cases/total no. of cases studied” value ([2]; Cerebullum) was 0/2. For the same molecule, the “No. of positive cases/total no. of cases studied” value ([2]; Cervix) was 0/2, the “No. of positive cases/total no. of cases studied” value ([2]; Colon) was 0/2 and the “No. of positive cases/total no. of cases studied” value ([2]; Diaphragm) was 2/2. For the same molecule, the “No. of positive cases/total no. of cases studied” value ([2]; Duodenum) was 0/2, the “No. of positive cases/total no. of cases studied” value ([2]; Esophagus) was 0/2 and the “No. of positive cases/total no. of cases studied” value ([2]; Gallbladder) was 0/2. For the same molecule, the “No. of positive cases/total no. of cases studied” value ([2]; Heart) was 0/2, the “No. of positive cases/total no. of cases studied” value ([2]; Ileum) was 2/2 and the “No. of positive cases/total no. of cases studied” value ([2]; Jejenum) was 2/2. For the same molecule, the “No. of positive cases/total no. of cases studied” value ([2]; Kidney) was 1/2, the “No. of positive cases/total no. of cases studied” value ([2]; Liver) was 0/2 and the “No. of positive cases/total no. of cases studied” value ([2]; Lung) was 0/2. The “No. of positive cases/total no. of cases studied” value ([2]; Ovary) was 0/2, the “No. of positive cases/total no. of cases studied” value ([2]; Pancreas) was 0/2 and the “No. of positive cases/total no. of cases studied” value ([2]; Placenta) was 1/4. The “No. of positive cases/total no. of cases studied” value ([2]; Rectum) was 0/2, the “No. of positive cases/total no. of cases studied” value ([2]; Skeletal muscle) was 2/2 and the “No. of positive cases/total no. of cases studied” value ([2]; Skin) was 0/2. For the same molecule, the “No. of positive cases/total no. of cases studied” value ([2]; Spleen) was 0/2, the “No. of positive cases/total no. of cases studied” value ([2]; Stomach) was 0/2 and the “No. of positive cases/total no. of cases studied” value ([2]; Testis) was 0/2. For the same molecule, the “No. of positive cases/total no. of cases studied” value ([2]; Thymus) was 0/2, the “No. of positive cases/total no. of cases studied” value ([2]; Thyroid) was 0/2 and the “No. of positive cases/total no. of cases studied” value ([2]; Tonsil) was 0/2. For the same molecule, the “No. of positive cases/total no. of cases studied” value ([2]; Uterus) was 0/2.

B2: PSf42.3: anti-PSMA monoclonal antibody; light chain variable SEQ ID NO:49, heavy chain variable SEQ ID NO:50 (antibody, V domains shown)
VH: EVQLQQSGAELAKPGASVKLSCTGSGFNIKDTYMHWVKQRPEQGLEWIGGIDPETGNTKFDPRFQDKATITSDTSSNTVLLQLSSLTSEDTAVYYCANLGRPFAHWGQGTTVTVS
VL: HSADPVSISCKSSQSLLHRDGKTYLNWVFQRPGQSPQRLIYLVSLVDSGVPDRFTGSGSGTDFTLKINRVEAEDLGVYYCWQGTHFPRTFGGGTKLEIKRA
For B2, the “No. of positive cases/total no. of cases studied” value ([1]; Astrocytoma) was 0/2, the “No. of positive cases/total no. of cases studied” value ([1]; Breast carcinoma) was 0/2 and the “No. of positive cases/total no. of cases studied” value ([1]; Carcinoid) was 0/3. The “No. of positive cases/total no. of cases studied” value ([1]; Colonic adenocarcinoma) was 0/2, the “No. of positive cases/total no. of cases studied” value ([1]; Epithelioid sarcoma) was 0/1 and the “No. of positive cases/total no. of cases studied” value ([1]; Ewing's sarcoma) was 0/1. The “No. of positive cases/total no. of cases studied” value ([1]; Gastric carcinoma) was 0/2, the “No. of positive cases/total no. of cases studied” value ([1]; Hepatocellular carcinoma) was 0/2 and the “No. of positive cases/total no. of cases studied” value ([1]; Hodgkin's lymphoma) was 2/13. The “No. of positive cases/total no. of cases studied” value ([1]; Leiomyoma) was 0/2, the “No. of positive cases/total no. of cases studied” value ([1]; Lung adeno carcinoma) was 0/2 and the “No. of positive cases/total no. of cases studied” value ([1]; Lymphoma) was 0/3. For the same molecule, the “No. of positive cases/total no. of cases studied” value ([1]; Malignant fibrous histiocytoma) was 0/1, the “No. of positive cases/total no. of cases studied” value ([1]; Melanoma) was 2/4 and the “No. of positive cases/total no. of cases studied” value ([1]; Mesothelioma) was 0/2. For the same molecule, the “No. of positive cases/total no. of cases studied” value ([1]; Ovarian carcinoma) was 0/2, the “No. of positive cases/total no. of cases studied” value ([1]; Pancreatic carcinoma) was 0/2 and the “No. of positive cases/total no. of cases studied” value ([1]; Prostatic carcinoma) was 1/1. The “No. of positive cases/total no. of cases studied” value ([1]; Renal cell carcinoma) was 0/2, the “No. of positive cases/total no. of cases studied” value ([1]; Rhabdosarcoma) was 2/2 and the “No. of positive cases/total no. of cases studied” value ([1]; Thyroid carcinoma) was 0/2. For the same molecule, the “No. of positive cases/total no. of cases studied” value ([1]; Undifferentiated carcinoma) was 0/4, the “No. of positive cases/total no. of cases studied” value ([2]; Adipose) was 0/2 and the “No. of positive cases/total no. of cases studied” value ([2]; Bladder) was 0/2. For the same molecule, the “No. of positive cases/total no. of cases studied” value ([2]; Brain) was 0/2, the “No. of positive cases/total no. of cases studied” value ([2]; Breast) was 0/2 and the “No. of positive cases/total no. of cases studied” value ([2]; Cerebullum) was 0/2. For the same molecule, the “No. of positive cases/total no. of cases studied” value ([2]; Cervix) was 0/2, the “No. of positive cases/total no. of cases studied” value ([2]; Colon) was 0/2 and the “No. of positive cases/total no. of cases studied” value ([2]; Diaphragm) was 2/2. For the same molecule, the “No. of positive cases/total no. of cases studied” value ([2]; Duodenum) was 2/2, the “No. of positive cases/total no. of cases studied” value ([2]; Esophagus) was 2/2 and the “No. of positive cases/total no. of cases studied” value ([2]; Gallbladder) was 0/2. The “No. of positive cases/total no. of cases studied” value ([2]; Heart) was 0/2, the “No. of positive cases/total no. of cases studied” value ([2]; Ileum) was 2/2 and the “No. of positive cases/total no. of cases studied” value ([2]; Jejenum) was 2/2. The “No. of positive cases/total no. of cases studied” value ([2]; Kidney) was 2/2, the “No. of positive cases/total no. of cases studied” value ([2]; Liver) was 0/2 and the “No. of positive cases/total no. of cases studied” value ([2]; Lung) was 0/2. The “No. of positive cases/total no. of cases studied” value ([2]; Ovary) was 0/2, the “No. of positive cases/total no. of cases studied” value ([2]; Pancreas) was 0/2 and the “No. of positive cases/total no. of cases studied” value ([2]; Placenta) was 1/4. The “No. of positive cases/total no. of cases studied” value ([2]; Rectum) was 0/2, the “No. of positive cases/total no. of cases studied” value ([2]; Skeletal muscle) was 2/2 and the “No. of positive cases/total no. of cases studied” value ([2]; Skin) was 0/2. For the same molecule, the “No. of positive cases/total no. of cases studied” value ([2]; Spleen) was 0/2, the “No. of positive cases/total no. of cases studied” value ([2]; Stomach) was 0/2 and the “No. of positive cases/total no. of cases studied” value ([2]; Testis) was 0/2. For the same molecule, the “No. of positive cases/total no. of cases studied” value ([2]; Thymus) was 0/2, the “No. of positive cases/total no. of cases studied” value ([2]; Thyroid) was 0/2 and the “No. of positive cases/total no. of cases studied” value ([2]; Tonsil) was 0/2. For the same molecule, the “No. of positive cases/total no. of cases studied” value ([2]; Uterus) was 0/2.
